In US20230174630A1 (UNIVERSITY OF BRITISH COLUMBIA, published 2023):

B1: YPTL-2F7 (scFv)
scFv: MDVKLVESGGGLVKLGGSLKLSCAASGFTFSSYYMSWVRQTPEKRLELVATINSNGGSTYYPDTVKGRITISRDNAKNTLQLQMSSLRSEDTALYYCVRQNYEGAYWGQGTLVTVSAGGGGSGGGGSGGGGSDVLMTQTPLSLPVTLGDQASISCRSSQSIVHSNGNTYLEWYLQKPGQSPKLLIYKVSNRFSGVPDRFSGSGSGTDFTLKISRVEAEDLGVYYCFQSSHVPWTFGGGTKLEIKDYKDDDDKRWRKSHSSSYTPLSGSTYPEGRH
B2: YPTL-14H1-14K2 (scFv)
scFv: MQEQLEESGGDLVKPEGSLTLTCTASGFSFSSNYVMCWVRQAPGKGLEWVACIWFAGIVDTTYYATWAKGRFTISKTSSTTVTLQMTSLTAADTATYFCARNPVGSVNLWGQGTLVTVSSGGGGSGGGGSGGGGSVMTQTPSSKSVPVGGSVTINCQASESVYSNNRLSWYQQKPGQPPKLLIYYASTLESGVPSRFKGSGFGTHFTLTISGAQCDDAATYYCAGWRGARTDGVDFGGGTEVVVKDYKDDDDKRWRKSHSSSYTPLSGSTYPEGRH
B3: MYCL20H-14H1-14K2 (scFv)
scFv: MAIVMTQTPSSKSVPVGGSVTINCQASESVYSNNRLSWYQQKPGQPPKLLIYYASTLESGVPSRFKGSGFGTHFTLTISGAQCDDAATYYCAGWRGARTDGVDFGGGTEVVVKGSTGGGGSGKPGSGEGGGGSQEQLEESGGDLVKPEGSLTLTCTASGFSFSSNYVMCWVRQAPGKGLEWVACIWFAGIVDTTYYATWAKGRFTISKTSSTTVTLQMTSLTAADTATYFCARNPVGSVNLWGQGTLVTVSSGSGEQKLISEEDL
notes: Intrabody: VL-20 aa linker-VH-GSG-MYC tag

The binders below were run against T1, endogenous wild type TDP-43 of HEK293 cells (human, UniProt Q13148 1-414) (assay: co-localization immunocytochemistry, intrabody expressed in HEK293 cells).
T1 construct: whole, on cells; Intracellular endogenous protein: nuclear in unstressed cells; also called endogenous, nuclear WT TDP-43; normal nuclear TDP-43
T1 sequence (Q13148 whole entry): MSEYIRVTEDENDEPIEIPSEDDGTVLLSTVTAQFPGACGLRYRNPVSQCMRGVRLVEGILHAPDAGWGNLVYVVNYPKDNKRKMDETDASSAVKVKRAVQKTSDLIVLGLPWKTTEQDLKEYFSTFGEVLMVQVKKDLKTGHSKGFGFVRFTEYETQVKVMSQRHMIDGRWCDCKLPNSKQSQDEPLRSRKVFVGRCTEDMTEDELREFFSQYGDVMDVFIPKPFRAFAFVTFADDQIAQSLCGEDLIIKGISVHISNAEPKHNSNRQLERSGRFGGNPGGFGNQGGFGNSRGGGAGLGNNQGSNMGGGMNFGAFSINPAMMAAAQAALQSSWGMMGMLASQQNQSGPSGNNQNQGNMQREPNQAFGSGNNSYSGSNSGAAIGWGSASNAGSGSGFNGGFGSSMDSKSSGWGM
B1: no binding. B2: no binding. B3: no binding.
